Paper PMC10397247

Columns and labels:
Assay in all cases: two-hybrid library CCNG1;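 note: natural log of median RNA to DNA barcode read ratio; higher means stronger binding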
P7SHb = molecular target: T1, P7SHb
T1 chain: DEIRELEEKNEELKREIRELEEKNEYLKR

P6SHb = molecular target: T2, P6SHb
T2 chain: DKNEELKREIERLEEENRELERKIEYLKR

P4SHb = molecular target: T3, P4SHb
T3 chain: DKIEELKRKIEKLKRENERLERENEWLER

P5SHb = molecular target: T4, P5SHb
T4 chain: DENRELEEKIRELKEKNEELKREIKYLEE

P9SHb = molecular target: T5, P9SHb
T5 chain: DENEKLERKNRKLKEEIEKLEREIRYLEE

P8SHb = molecular target: T6, P8SHb
T6 chain: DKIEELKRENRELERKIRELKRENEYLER

4H949-bN = molecular target: T7, 4H949-bN
T7 chain: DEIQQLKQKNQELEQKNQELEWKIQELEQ

4H2931-bN = molecular target: T8, 4H2931-bN
T8 chain: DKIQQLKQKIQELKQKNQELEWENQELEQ

4H3041-bN = molecular target: T9, 4H3041-bN
T9 chain: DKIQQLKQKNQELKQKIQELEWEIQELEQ

4H264-bN = molecular target: T10, 4H264-bN
T10 chain: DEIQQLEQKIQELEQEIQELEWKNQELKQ

4H2444-bN = molecular target: T11, 4H2444-bN
T11 chain: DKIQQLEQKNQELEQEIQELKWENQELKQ

4H3364-bN = molecular target: T12, 4H3364-bN
T12 chain: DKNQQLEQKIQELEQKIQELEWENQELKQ

4H796-bN = molecular target: T13, 4H796-bN
T13 chain: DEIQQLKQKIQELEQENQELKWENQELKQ

4H2518-bN = molecular target: T14, 4H2518-bN
T14 chain: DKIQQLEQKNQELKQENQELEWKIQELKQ

4H2859-bN = molecular target: T15, 4H2859-bN
T15 chain: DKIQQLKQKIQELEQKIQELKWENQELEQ

4H56-bN = molecular target: T16, 4H56-bN
T16 chain: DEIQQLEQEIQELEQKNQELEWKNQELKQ

4H730-bN = molecular target: T17, 4H730-bN
T17 chain: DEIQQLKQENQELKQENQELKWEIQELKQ

4H932-bN = molecular target: T18, 4H932-bN
T18 chain: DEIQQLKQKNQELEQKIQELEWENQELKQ

4H3381-bN = molecular target: T19, 4H3381-bN
T19 chain: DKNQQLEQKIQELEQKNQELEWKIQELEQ

4H2585-bN = molecular target: T20, 4H2585-bN
T20 chain: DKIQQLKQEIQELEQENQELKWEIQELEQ

4H3297-bN = molecular target: T21, 4H3297-bN
T21 chain: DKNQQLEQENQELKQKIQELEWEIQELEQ

4H2760-bN = molecular target: T22, 4H2760-bN
T22 chain: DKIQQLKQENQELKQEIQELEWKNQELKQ

4H349-bN = molecular target: T23, 4H349-bN
T23 chain: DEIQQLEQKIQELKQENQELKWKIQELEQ

P3A-bN = molecular target: T24, P3A-bN
T24 chain: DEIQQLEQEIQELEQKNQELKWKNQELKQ

P5A-bN = molecular target: T25, P5A-bN
T25 chain: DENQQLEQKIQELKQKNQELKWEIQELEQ

P6A-bN = molecular target: T26, P6A-bN
T26 chain: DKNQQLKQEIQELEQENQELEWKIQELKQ

P4A-bN = molecular target: T27, P4A-bN
T27 chain: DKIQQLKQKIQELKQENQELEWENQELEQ

P9A-bN = molecular target: T28, P9A-bN
T28 chain: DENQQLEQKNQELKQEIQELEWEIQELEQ

P7A-bN = molecular target: T29, P7A-bN
T29 chain: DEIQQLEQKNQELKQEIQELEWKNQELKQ

P8A-bN = molecular target: T30, P8A-bN
T30 chain: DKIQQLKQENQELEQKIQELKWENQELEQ

4H3175-bA = molecular target: T31, 4H3175-bA
T31 chain: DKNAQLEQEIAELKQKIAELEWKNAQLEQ

4H3858-bA = molecular target: T32, 4H3858-bA
T32 chain: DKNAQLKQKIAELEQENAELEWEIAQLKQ

4H3497-bA = molecular target: T33, 4H3497-bA
T33 chain: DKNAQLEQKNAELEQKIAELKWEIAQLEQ

4H1544-bA = molecular target: T34, 4H1544-bA
T34 chain: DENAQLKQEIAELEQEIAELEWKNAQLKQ

4H3277-bA = molecular target: T35, 4H3277-bA
T35 chain: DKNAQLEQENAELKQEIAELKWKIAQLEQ

4H3628-bA = molecular target: T36, 4H3628-bA
T36 chain: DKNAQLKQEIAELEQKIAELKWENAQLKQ

4H3462-bA = molecular target: T37, 4H3462-bA
T37 chain: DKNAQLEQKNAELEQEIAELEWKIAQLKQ

4H3817-bA = molecular target: T38, 4H3817-bA
T38 chain: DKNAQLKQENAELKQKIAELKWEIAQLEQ

4H626-bA = molecular target: T39, 4H626-bA
T39 chain: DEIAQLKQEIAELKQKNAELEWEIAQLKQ

4H3926-bA = molecular target: T40, 4H3926-bA
T40 chain: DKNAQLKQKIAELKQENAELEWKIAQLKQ

4H570-bA = molecular target: T41, 4H570-bA
T41 chain: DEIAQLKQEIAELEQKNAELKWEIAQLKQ

4H3298-bA = molecular target: T42, 4H3298-bA
T42 chain: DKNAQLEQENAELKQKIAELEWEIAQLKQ

4H3613-bA = molecular target: T43, 4H3613-bA
T43 chain: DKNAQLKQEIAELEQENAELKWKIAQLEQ

4H906-bA = molecular target: T44, 4H906-bA
T44 chain: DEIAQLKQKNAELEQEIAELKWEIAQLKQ

4H1985-bA = molecular target: T45, 4H1985-bA
T45 chain: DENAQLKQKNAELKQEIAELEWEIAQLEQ

4H591-bA = molecular target: T46, 4H591-bA
T46 chain: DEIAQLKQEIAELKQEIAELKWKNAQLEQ

4H3974-bA = molecular target: T47, 4H3974-bA
T47 chain: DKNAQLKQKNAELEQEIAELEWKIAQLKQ

4H1710-bA = molecular target: T48, 4H1710-bA
T48 chain: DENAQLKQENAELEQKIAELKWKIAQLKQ

4H1899-bA = molecular target: T49, 4H1899-bA
T49 chain: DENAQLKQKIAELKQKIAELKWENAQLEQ

4H3162-bA = molecular target: T50, 4H3162-bA
T50 chain: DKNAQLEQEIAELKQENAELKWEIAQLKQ

4H850-bA = molecular target: T51, 4H850-bA
T51 chain: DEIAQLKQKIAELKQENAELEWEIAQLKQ

P5A = molecular target: T52, P5A
T52 chain: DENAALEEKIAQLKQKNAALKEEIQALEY

4H235-bN = molecular target: T53, 4H235-bN
T53 chain: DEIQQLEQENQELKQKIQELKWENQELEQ

P3A-bS = molecular target: T54, P3A-bS
T54 chain: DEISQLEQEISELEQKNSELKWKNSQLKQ

P7A-bS = molecular target: T55, P7A-bS
T55 chain: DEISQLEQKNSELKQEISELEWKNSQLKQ

P4A-bS = molecular target: T56, P4A-bS
T56 chain: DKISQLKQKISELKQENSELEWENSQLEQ

P8A-bS = molecular target: T57, P8A-bS
T57 chain: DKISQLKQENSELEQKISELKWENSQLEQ

P9A-bS = molecular target: T58, P9A-bS
T58 chain: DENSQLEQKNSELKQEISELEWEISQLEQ

P5A-bS = molecular target: T59, P5A-bS
T59 chain: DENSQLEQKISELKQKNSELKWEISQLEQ

B1: P4SHb (peptide)
chain: DKIEELKRKIEKLKRENERLERENEWLER
interaction score (P7SHb): -1.05
interaction score (P6SHb): 0.8
interaction score (P4SHb): -0.574
interaction score (P5SHb): -0.773
interaction score (P9SHb): 0.746
interaction score (P8SHb): -1.17

B2: 4H2444-bN (peptide)
chain: DKIQQLEQKNQELEQEIQELKWENQELKQ
interaction score (4H949-bN): -0.477
interaction score (4H2931-bN): -0.103
interaction score (4H3041-bN): 0.447
interaction score (4H264-bN): 0.471
interaction score (4H2444-bN): 1.34
interaction score (4H3364-bN): -0.17
interaction score (4H796-bN): -0.0985
interaction score (4H2518-bN): -0.0731
interaction score (4H2859-bN): 0.194
interaction score (4H56-bN): 0.273
interaction score (4H730-bN): -0.506
interaction score (4H932-bN): 0.018
interaction score (4H3381-bN): 0.0258
interaction score (4H2585-bN): -0.578
interaction score (4H3297-bN): -0.0483
interaction score (4H2760-bN): -0.126
interaction score (4H349-bN): -0.375

B3: P3A-bN (peptide)
chain: DEIQQLEQEIQELEQKNQELKWKNQELKQ
interaction score (P3A-bN): -0.693
interaction score (P5A-bN): -1.91
interaction score (P6A-bN): 0.0905
interaction score (P4A-bN): 1.79
interaction score (P9A-bN): 0.0484
interaction score (P7A-bN): 0.502
interaction score (P8A-bN): -0.0492

B4: 4H1544-bA (peptide)
chain: DENAQLKQEIAELEQEIAELEWKNAQLKQ
interaction score (4H3175-bA): -0.0402
interaction score (4H3858-bA): -0.357
interaction score (4H3497-bA): 0.215
interaction score (4H1544-bA): 0.00288
interaction score (4H3277-bA): 0.243
interaction score (4H3628-bA): 0.77
interaction score (4H3462-bA): 0.455
interaction score (4H3817-bA): 0.78
interaction score (4H626-bA): -0.46
interaction score (4H3926-bA): 0.0381
interaction score (4H570-bA): -0.0902
interaction score (4H3298-bA): 0.792
interaction score (4H3613-bA): 0.572
interaction score (4H906-bA): -0.806
interaction score (4H1985-bA): 0.274
interaction score (4H591-bA): -0.632
interaction score (4H3974-bA): 0.562
interaction score (4H1710-bA): 2.06
interaction score (4H1899-bA): 1.52
interaction score (4H3162-bA): 0.788
interaction score (4H850-bA): 0.322

B5: P5A-bN (peptide)
chain: DENQQLEQKIQELKQKNQELKWEIQELEQ
interaction score (P5A-bN): -1.81
interaction score (P6A-bN): 1.62
interaction score (P9A-bN): -1.14
interaction score (P7A-bN): -1.53
interaction score (P8A-bN): -0.311

B6: P2A-bN (peptide)
chain: DKIQQLKQKNQELKQKNQELKWKIQELKQ
interaction score (P3A-bN): -1.27
interaction score (P5A-bN): -0.834
interaction score (P6A-bN): -0.329
interaction score (P4A-bN): -0.0603
interaction score (P9A-bN): -0.223
interaction score (P7A-bN): -2.31
interaction score (P5A): -1.29
interaction score (P8A-bN): -0.172

B7: 4H235-bN (peptide)
chain: DEIQQLEQENQELKQKIQELKWENQELEQ
interaction score (4H949-bN): -0.438
interaction score (4H2931-bN): -1.14
interaction score (4H3041-bN): -0.319
interaction score (4H264-bN): -0.206
interaction score (4H2444-bN): -0.884
interaction score (4H3364-bN): 0.709
interaction score (4H796-bN): -0.458
interaction score (4H2518-bN): -0.299
interaction score (4H2859-bN): 0.00948
interaction score (4H56-bN): -0.626
interaction score (4H730-bN): -1.94
interaction score (4H932-bN): -0.682
interaction score (4H3381-bN): -1.48
interaction score (4H2585-bN): -0.77
interaction score (4H3297-bN): -0.527
interaction score (4H2760-bN): 2.03
interaction score (4H235-bN): 0.562
interaction score (4H349-bN): -0.0107

B8: P5SHb (peptide)
chain: DENRELEEKIRELKEKNEELKREIKYLEE
interaction score (P7SHb): -0.193
interaction score (P6SHb): 1.24
interaction score (P5SHb): -0.373
interaction score (P9SHb): -0.0948
interaction score (P8SHb): 0.218

B9: P3A-bS (peptide)
chain: DEISQLEQEISELEQKNSELKWKNSQLKQ
interaction score (P3A-bS): -1.29
interaction score (P7A-bS): -0.377
interaction score (P4A-bS): 1.45
interaction score (P8A-bS): -0.303
interaction score (P9A-bS): 0.297
interaction score (P5A-bS): -0.938

B10: P1A-bN (peptide)
chain: DEIQQLEQENQELEQENQELEWEIQELEQ
interaction score (P3A-bN): -1.29
interaction score (P5A-bN): -0.827
interaction score (P6A-bN): -0.545
interaction score (P4A-bN): -0.418
interaction score (P9A-bN): -2.46
interaction score (P7A-bN): -1.2
interaction score (P8A-bN): -0.492
